# Experimental data as given in the nanobody polyreactivity screen of Harvey et al. (2022).
# Assay: yeast display, Sf9 membrane polyspecificity reagent, FACS + sequencing; frameworks hold sequencing errors
# Method in brief: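 Galactose-induced (36–48 hours) yeast carrying a synthetic nanobody display library were exposed to 10% biotinylated, detergent-solubilized Sf9 membrane reagent at 4 °C for 1 hour. FACS followed streptavidin microbead enrichment, using low and high (top ~1%) gates for expression (anti-HA) and reagent binding (streptavidin). Colony PCR, MiSeq 2 × 250 sequencing and CDR-length filtering followed. Labels for polyreactivity reflect the gate of origin.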
row,Sequence,polyreactivity (PSR sort gate)
1,QVQHVESVGGLVQAGGRLRLSSAASGSIFSYNAMGWYRQAPVKERQLVARITRGGDGTYYADSVMVRFTISRDNAKNTVYLQMNSLKPEDTAVYYCAGTPYWYHLRVEGGYWGQGTQVTVSS,low polyreactivity
2,QVQLVESGGGLVQAGGSLRLSCAASVRTFHYYAMGWYRQAPGKERELVAGITGGGSTYYADSVKGRFTISRDNAKNTVYLLMNSLKPEDTAVYYCADDRSYYGYGYCGQGTQVTVSS,low polyreactivity
3,QVQLVESGGGLVQAGGSLRLSCAASGFTYSLYDMGWYRQAPGKERELVAAISSDGSTNYADSVKGRFTISRDNAKNTVYLQMNSLKPEDTAVYYCAADETFLSYWLNYWGQGTQVTVSS,low polyreactivity
4,QVQLVESGGGLVQAGGSLRLSCAASGSTFSWYTMGWYRQAPGKERELVAAISWSGGRTYYADSVKGRFTISRDNAKNTVYLQMNSLKPEDTAVYYCAAYDYWYSLGDYQFYYSGQGTQVTVSS,low polyreactivity
5,QVQLVESGGGLDQAGGSLRLSCAASGSTFVLNAMGWYRQAPGKERDLVAAITSNGGRTYYADSVKGRFTISRDNAKNTVYLQMNSLKPEDTAVYYCNAVKTHRVRVHGWDYGYWGQGTQVTVSS,high polyreactivity
6,QVQLVESGGGLVQAGGSLRLSCAASGSTFHYYAMGWYRQAPGKERELVAAISKSGGITYYADSVKGRFTISRDNAKNTVSLQMNSLKPEDTAVYYCNAYSASGYDYWGQGTQVTVSS,high polyreactivity
7,QVQLVESGGGLVQAGGSLRLSCADSGFTFSQYAAIGWYRQAPGKERELVAAINISGSTNYADSVKGRFTISRDNAKNTVYLQMNSLKPEDTAVYYCAAQQSWKIYDYWGLGTQVTVSS,low polyreactivity
8,QVQLVESGGGLVQAGGSLRLSCAASGLIFVDNAMGLYRQAPGKERELVAAIDSGGSTNYADSVKGRFTISRDNAKTTVYLQMNSLNPEDTAVYYCAADWIYAPWYYQESVEYYYWGQGTQVTVSS,low polyreactivity
9,QVQLVESGGGLVQAGGSLRLSCAASGRIFGYYAMGWYRQAPGKERELVAAIRYSSGRTYYADSVKGRFTISRDNAKNNVYLQMNSLKPEDTAVYYCNAGYLFLRSYPHDYWGQGTQVTVSS,high polyreactivity
10,QVQLVESGGGLVQAGGSLRLSCAASGRISVYYAMGWYRQGPGKERELVAAISWRGSTYYADSVKGRFTISRDYAKNTVYIQMNSQKPEDTAVYNSAARSTGYYGRFYYWGQGTQVTVSS,high polyreactivity
11,QVQLVESGGGLDQAGGSLRLSCAASGSIFYDNTMAWYRQAAGKERDLVADISSGDSTYYADSVKGRFTISRDNAKNTVYLQMNSLKPEDTAVYYCNADVYSWVSVKEGDYWGQGTEVTVSS,low polyreactivity
12,QVQLVESGGGLVQAGGSLRLSCAASGSIFYSNAMGWYRQAPGKERELVAAITWSGGSTYYADSVKGRFTFSRDNAKNTVYLQKNSLKPEDTSVYYCNARRNVRQTFGYEDWGQGTQVTVSS,high polyreactivity
13,QVQFVDSGAGLVQAGGSLRLSCAASGSTLTTNAMGWYRQAPGKERELVAAISWRGGPTYYADSVKGRFTISRDIAKNTVYLQMNSLKPEDTAVYYCAADYTRSAYDYWGQGTQVTVSS,high polyreactivity
14,QVQLVESGVGIVQAGGILRLSCAASGSIFFFYAMGWYRQAPAKERELVAAITSSDGDTYYADSVKGRFTISRDNAKNTVYLEMNSLKPEDTAVYYCAVRSSWYEGDYWGQGTQVTVSS,low polyreactivity
15,QVQLVESGGGLVQAGGSLRLSCAASGSIFIVNAMGWYRQAPGKERELVATITSDVDTNYADSVKGRFTISRDNAKNTVYLQMNSLKPEDTAVYYCAKESTKIYRVVEMDYWGQGTQVTVSS,low polyreactivity
16,QVQLVESGGGLVQAGGSLRLSCAASGITFYYYTMGWYRQAPGKERELVAGITRGGRTYYADSVKGRFTISRDNAKNTVYLQMNSLKPEDTAVYYCAADYSYIYGFDYWGQGTQVTVSS,low polyreactivity
17,QVQLVESGGGLVQAGGSLRLSCAASGSIFVQYDMGWYRQAPGKERELVAAITSGSSTNYADSVKGRFTISRDNAKNTVYLQMNSLKPEDTAVYYCAASTPYSYRYDYWGQGTQVTVSS,low polyreactivity
18,QVQLVESGGGLVQAGGSLRLSCAASGRTFPYYAMGWYRQAPGKERELVATITRGGSTYYADSVKGRFTISRDNAKNTVYLQMNSLKPEDTAVYYCNADYWGHRFYFPGRRDYWGQGTQVTVSS,low polyreactivity
19,QVQLVESGGGLVQAGGSLRLSCAASGSTFPRNAMGWYRQAAGKERELVAAISGRGVRTYYADSVKGRFTISRDNAKNTVYLQMNSLKPEDTAVHYCAAERQPYRTSSYNYWGQGTQVTVSS,high polyreactivity
20,QVQLVESGGGLVQAGGSLRLSCAASGFIFTYNTMGWDRQAPGKERELVAAISLRGGNTYYADSVKGRFTISRDNAKNTVYLQMHSLKPEDTAVYYCAALGKYRSGNYFGQGTQVTVSS,high polyreactivity
21,QVQLVESGGGLVQAGGSLRLSCAASGIIFSWYAMGWYRQAPGKERELVATISSGAHTYYADSVKGRFTISRDNAKNTVYLQMNSLKPEDTAVYYCATTSYGYWFGYIPEVDYWGQGTQVTVSS,low polyreactivity

row,Sequence,polyreactivity (PSR sort gate)
1,QVQLVESVGGLDQAGGSLRLSCAASGRIFRQNAMGWYRQAPGKERELVAAISRSGGSTYYADSVKGRFTISRDNAKNTVYLQMNSLKPEDTAVYYCNRDYQSQRTYPRRYDYCGQGTQVTVSS,low polyreactivity
2,QVQLVESGGGLVQAGGSLRLSCAASGRTFGPYAMGWYIQAPGKERELVAAITWSSGRTYYADSVKGRFTISRDNAKNTVYLQMNSLKPEDTAVYYCNKDRFYRNNYGYGYWGQGTQVTVSS,high polyreactivity
3,QVHLVESGGGLVQAGGSLRLSCAASGFTFTLYAMGWYRQAPGKERELVAAIYFSGGNTYYADSVKGRFTISRDNAKNTVYLQMNSLKPEDTAVYYCAAEYYPSASYYYGWYTIFWLITRDDYYWGQGTQVTVSS,high polyreactivity
4,QVQLVESGGGLVQAGGSLSLSCAASAHTFVTNAMGWYRQAPGKERELVAAISRSGGHTYYADSVKGRFTISRDNAKNTVYLQMNSLKPEDTAVYYCAKTRGPRTLYDYWGQGTQVTVSS,high polyreactivity
5,QVQIVESGGGLVQAGGSLRLTCAASGFTFGPYAMGWYRQEPGKERELVAAITVNGSSTYADSVKGRFTISRDNAKNTVVLQMNSLKPEDTAVYYCAATVYPGGPYGGDSDYWGQGTQVTVSS,low polyreactivity
6,QVQLVESGGGLVQAGGSLRLICAASGFIFGDYTMGWYRPAPGKEREVVAAITWYGDSTYYADSVKGRFTISRDNAKNTVYLQMNTLKTEDTAVYYCNAVNDWYYAYYGVTSFRSYDYWGQGSQVTVSS,low polyreactivity
7,QLQHVETGGGLVQAGGSLRLSCAASGSTFRSYVMGWYRQAPGKERELVAAISWITGSTYYADSVKGRFTISRDNAKNTVYLQMNSLKPEDTAVYDCAARYRTQSSLYYWGQGTQVTVSS,high polyreactivity
8,QVQLVESGGGLVQAGGILRLSCAASGIIFSEYAMGWYRQAPGKERELVAAISKSSGSTRYADSVKGRFTISRDNAKNTVYLQMNSLKPEDTAVYYCAREYRWRYGYDYWGQGTQVTVSS,high polyreactivity
9,QVQLVESGGGLVQAGGSLRLSCAASGRIFKYYAMGWYRQAPGKERELVARISSSGGSTYYADSVKGRFTISRDNAKNTVYLQMNSLKPEDTAVYYCNARYYSTKYFLGDYWGQGTQVTVSS,high polyreactivity
10,QVQLVESGGGLVQAGGSHRLSCAASGSIFIRYAMGWYRQAPAKERELVASITSGGSTYYADSVKGRFTISRDNEKNTVYLQMNSLKPEDTSVYYCNALPYRYRRYDYWGQGTQVTVSS,low polyreactivity
11,QVQLVESGGGLVQAGGSLRLSCAASGFTFSRNGMGWYRLAPGKERELVADITLSGASTYYADSVKGRFTISRDNAKNTVYLQMKSLKPEDTAVYYCAADPYHWRWGWRHDYWGQGTQVTVSS,low polyreactivity
12,QVQLVESGGGLVQAGGSLRLSCAASGFTFGKYGMGWYRQAPGKERELVAAISASGGITYYADSVKGRFTISRDNAKNTVYLQMNSLKPEDTAVYYCAVRRRYGAFISYDYWGQGTQVTVSS,high polyreactivity
13,QVQLVESGGGLVQAGGSLRLSCAASGITFWGYVMGWYRQAPGKERELVAAISSSGGRTYYADSVKGRFTISRDNAKNTVYLQMNSLKPEDTAVYYCAAVAWQGTVQFGYWGQGTQVTVSS,high polyreactivity
14,QVQLVESGGGLVQAGGSLRLSCASSGRIFSGNAMAWYRQAPGKEMEFVASISRSGGRTRYADSVKGRFTISRDNAKNTVYLQMNSLKPEDTAVYYCAADRSRRGHLTHGYWGQGTQVTVSS,high polyreactivity
15,QFQLVESVGGLVQAGGSLRLSLASSGSIFGPNTMGWYRQAPGKERELVAAIRGGGSTNYADSVKGRFTISRDNAKNTVYLQMNSLKPEDTAVYYCNATWNLFPGFLDRYDYWGQGTQVTVSS,low polyreactivity
16,QVQLVETGGGLVQAGGSLRLSSAASGSILEGYAMGWYRQAPGKERELVPAISRSGGSTYYADSVKGRFTISRDNAKNTVYLQMKSLKPEDTAVYYCAARYRLDGTHLTGYAYYSWGQGTQGTVSS,high polyreactivity
17,QVQLVESGGGLVQAGGSLRLTCAASGRTFRIYAMGWYRQAPGKERELVAAIRWSGGTTYYADSVKGRFTISRDNAKNTVYFQMNSLKPEDTAVYYCAADSTNRYDYWGQGTQVTVSS,high polyreactivity
18,QVQLVESGGGLVQAGGSLRLSCAASGLTFWLNAMGWYRQAPGKERELVAAIRYSGVGTYADSVKGRFTISRDNAKNTVYLQMNSLKPEDTAVYYCAALYNLGYPQFDYWGQGTQVTVSS,low polyreactivity
19,QDQLVESGGGLVQAGGSLRLSCAATGSTYYGYVMGWYRKAPGKETELVAAINLRGDRTYYADSVKGRFTISRDNAKNTVYLQMNSLKPEESSVYYCAARVMFYNSIKRYSWGQGTQVTGSS,high polyreactivity
20,QVQLVESGGGLVQAGGSLRLSCAASGIIFYGNTLGWYRQAPGKERELVAGIDFSDDSTNYADSVKGRFTISRDNAKNSVYLLRNSLKPEDTAVYYCAADTRSPSAQEVDYWGQGTQVTVSS,low polyreactivity
